Test results reported in patent US20200024360A1 (Janssen / Centocor, published 2020).
Residue numbers refer to the chain shown, from its start. Names may count otherwise.

How the values were obtained:
[1] = biological target: T1, human CD3ε on primary human T cells (human, UniProt P07766 23-207); assay: FACS, primary human T cells
T1 construct: whole, on cells; Part of the TCR-CD3 complex on the cells; also called cell-surface CD3ε; CD3E

[2] = biological target: T2, recombinant cynomolgous monkey PSMA extracellular domain (ECD) protein (Macaca fascicularis, UniProt Q04609 48-750 (human entry), biotin on the Avi tag); assay: SPR ProteOn
T2 construct: also called cyno PSMA ECD; PSMG1
T2 chain: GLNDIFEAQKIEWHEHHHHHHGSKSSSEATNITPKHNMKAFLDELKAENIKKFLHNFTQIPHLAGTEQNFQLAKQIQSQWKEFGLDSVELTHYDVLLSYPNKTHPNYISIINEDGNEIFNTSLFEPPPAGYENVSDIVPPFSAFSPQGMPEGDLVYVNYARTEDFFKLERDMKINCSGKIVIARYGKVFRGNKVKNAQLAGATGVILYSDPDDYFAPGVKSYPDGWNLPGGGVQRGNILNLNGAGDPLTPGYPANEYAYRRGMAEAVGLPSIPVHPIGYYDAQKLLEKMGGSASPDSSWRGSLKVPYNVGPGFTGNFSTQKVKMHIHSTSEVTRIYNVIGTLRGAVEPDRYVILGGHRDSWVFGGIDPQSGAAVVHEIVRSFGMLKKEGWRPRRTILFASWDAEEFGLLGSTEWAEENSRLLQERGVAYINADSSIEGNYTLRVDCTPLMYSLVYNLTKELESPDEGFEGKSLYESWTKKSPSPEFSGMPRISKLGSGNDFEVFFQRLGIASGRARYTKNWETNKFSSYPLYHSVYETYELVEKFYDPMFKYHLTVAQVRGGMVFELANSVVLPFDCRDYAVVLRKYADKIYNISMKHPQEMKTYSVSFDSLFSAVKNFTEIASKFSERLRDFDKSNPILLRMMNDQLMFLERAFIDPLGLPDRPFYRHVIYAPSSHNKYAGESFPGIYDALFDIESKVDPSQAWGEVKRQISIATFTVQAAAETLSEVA

[3] = biological target: T3, recombinant chimpanzee PSMA extracellular domain (ECD) protein (Pan troglodytes, UniProt Q04609 44-750 (human entry)); assay: SPR ProteOn
T3 construct: also called Chimp PSMA ECD; PSMG8
T3 chain: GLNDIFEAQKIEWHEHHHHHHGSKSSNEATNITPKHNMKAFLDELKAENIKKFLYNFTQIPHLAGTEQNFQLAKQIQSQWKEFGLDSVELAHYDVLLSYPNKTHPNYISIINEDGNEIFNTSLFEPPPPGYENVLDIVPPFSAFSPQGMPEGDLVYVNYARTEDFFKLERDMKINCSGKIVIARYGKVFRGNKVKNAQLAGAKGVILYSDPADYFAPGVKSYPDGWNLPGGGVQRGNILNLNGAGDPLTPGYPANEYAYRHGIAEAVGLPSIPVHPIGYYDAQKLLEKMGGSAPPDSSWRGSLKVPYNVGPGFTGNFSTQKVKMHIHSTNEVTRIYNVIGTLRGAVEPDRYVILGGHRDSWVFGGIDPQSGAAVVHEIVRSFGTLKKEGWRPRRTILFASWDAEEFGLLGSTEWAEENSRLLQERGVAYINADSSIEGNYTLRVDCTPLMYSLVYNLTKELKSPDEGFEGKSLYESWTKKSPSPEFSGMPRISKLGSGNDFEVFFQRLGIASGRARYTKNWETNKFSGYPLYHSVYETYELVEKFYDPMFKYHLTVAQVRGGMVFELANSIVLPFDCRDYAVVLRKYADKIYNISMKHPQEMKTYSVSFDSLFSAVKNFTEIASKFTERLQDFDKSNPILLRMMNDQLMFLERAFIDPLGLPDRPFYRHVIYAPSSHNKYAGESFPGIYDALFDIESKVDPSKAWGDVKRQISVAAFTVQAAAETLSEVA

[4] = biological target: T4, recombinant human PSMA extracellular domain (ECD) protein (human, UniProt Q04609 44-750); assay: SPR ProteOn
T4 construct: also called human PSMA ECD

[5] = biological target: T5, Cynomolgous monkey PSMA, full length (Macaca fascicularis, UniProt Q04609 1-750 (human entry)); assay: flow cytometry, mammalian Fab supernatant titrated on cyno PSMA (PSMG5) HEK cells, anti-human kappa-RPE
T5 construct: On transfected HEK293F cells; also called cyno PSMA; EHH56646.1
T5 chain: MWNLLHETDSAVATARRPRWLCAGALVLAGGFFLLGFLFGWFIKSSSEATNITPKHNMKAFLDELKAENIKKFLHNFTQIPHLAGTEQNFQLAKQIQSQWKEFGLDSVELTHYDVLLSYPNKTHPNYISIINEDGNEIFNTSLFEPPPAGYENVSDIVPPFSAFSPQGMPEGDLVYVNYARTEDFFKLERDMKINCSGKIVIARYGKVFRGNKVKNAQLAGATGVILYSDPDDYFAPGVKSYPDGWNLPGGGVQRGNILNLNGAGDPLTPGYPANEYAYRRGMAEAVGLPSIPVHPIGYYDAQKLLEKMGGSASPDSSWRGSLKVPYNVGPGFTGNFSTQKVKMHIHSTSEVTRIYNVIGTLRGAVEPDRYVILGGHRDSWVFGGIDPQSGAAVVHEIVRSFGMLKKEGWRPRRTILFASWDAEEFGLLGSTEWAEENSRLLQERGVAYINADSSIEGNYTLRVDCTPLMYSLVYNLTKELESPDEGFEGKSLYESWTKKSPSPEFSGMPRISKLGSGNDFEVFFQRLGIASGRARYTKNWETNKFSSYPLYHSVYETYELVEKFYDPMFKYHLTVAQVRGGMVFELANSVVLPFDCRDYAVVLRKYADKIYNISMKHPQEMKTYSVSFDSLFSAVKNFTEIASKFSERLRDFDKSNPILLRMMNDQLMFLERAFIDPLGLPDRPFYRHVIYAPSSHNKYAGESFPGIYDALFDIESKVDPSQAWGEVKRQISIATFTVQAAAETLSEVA
Procedure: Plates were read on a BD FACS Array flow cytometer. FACS data was analyzed in FlowJo software by live gating the healthy population of cells using forward scatter and side scatter, and then analyzing the cells within this gate for PE staining. Mean fluorescence intensity (MFI) was calculated and exported into Microsoft Excel. […] Fabs were sequenced and moved forward for cloning into mammalian expression vector for rescreening. True positives were selected from the binding of mammalian cell expressed Fab supernatants to PSMA-expressing cell lines.
Binding profiles among hits were compared across cell lines expressing different species of PSMA.

[6] = biological target: T6, human PSMA (prostate specific membrane antigen), full length (human, UniProt Q04609 1-750); assay: flow cytometry, bispecific antibody titrated on human PSMA HEK cells, anti-human kappa light chain PE
T6 construct: On LNCaP or C4-2B cells (endogenous) or transduced HEK293F cells; also called FOLH1_HUMAN; hPSMA
Procedure: (§1) PSMA×CD3 bispecific antibodies were tested for binding to PSMA positive cell lines LNCAP, human PSMA-HEK, Chimpanzee-PSMA-HEK and Cynomolgous monkey PSMA-HEK. To assess the binding capabilities of the PSMA bispecific antibodies, the cell-binding assay was utilized (described previously). Briefly, PSMA expressing tumor cells are bound by bispecific antibodies at known concentrations and the bound antibody is detected by an anti-human kappa light chain PE conjugated detection reagent (Invitrogen). The Mean Fluorescents Intensity (MFI) is the measure of bound bispecific antibody. The MFI is converted to a relative EC₅₀. EC₅₀ is a commonly used dose-response curve, where the half maximal effective concentration or the EC₅₀ point is defined as the inflection point of the curve. EC₅₀ s were determined by measuring cell bound bispecific and known concentrations. […] The dose response curves were then diluted down to that of background or no bispecific binding. The inflection point of this curve reflects the EC₅₀ point. The calculated EC₅₀ is determined by taking the ug/ml amount of bispecific antibody at the EC₅₀ point and converting it to a molarity value based on the MW of the bispecific antibody. Bispecific antibodies were normalized for protein concentration and then incubated with the same number of cells expressing either human or cyno PSMA. […]

[7] = biological target: T6, human PSMA (prostate specific membrane …); assay: flow cytometry, bispecific antibody titrated on LNCaP cells (human PSMA), anti-human kappa light chain PE
Procedure: as §1

[8] = biological target: T6, human PSMA (prostate specific membrane …); assay: as above; remark: listed apart in the source
Procedure: PSMA×CD3 bispecific antibodies were tested for binding to PSMA positive cell lines LNCAP, human PSMA-HEK, Chimpanzee-PSMA-HEK and Cynomolgous monkey PSMA-HEK. To assess the binding capabilities of the PSMA bispecific antibodies, the cell-binding assay was utilized (described previously). Briefly, PSMA expressing tumor cells are bound by bispecific antibodies at known concentrations and the bound antibody is detected by an anti-human kappa light chain PE conjugated detection reagent (Invitrogen). The Mean Fluorescents Intensity (MFI) is the measure of bound bispecific antibody. The MFI is converted to a relative EC₅₀. EC₅₀ is a commonly used dose-response curve, where the half maximal effective concentration or the EC₅₀ point is defined as the inflection point of the curve. EC₅₀ s were determined by measuring cell bound bispecific and known concentrations. […] The dose response curves were then diluted down to that of background or no bispecific binding. The inflection point of this curve reflects the EC₅₀ point. The calculated EC₅₀ is determined by taking the ug/ml amount of bispecific antibody at the EC₅₀ point and converting it to a molarity value based on the MW of the bispecific antibody. Bispecific antibodies were normalized for protein concentration and then incubated with the same number of cells expressing either human or cyno PSMA. The MFI at each concentration was collected by flow cytometry and plotted as a function of concentration. Data was transformed via log 10 and then plotted. Nonlinear regression of binding curves was done to determine EC₅₀ s. These relative values were used for ranking PSMA binding to target cells.

[9] = biological target: T7, cynomolgus CD3ε on primary cynomolgus CD4+ T cells (cynomolgus monkey, UniProt Q95LI5 22-198); assay: FACS, primary cynomolgus CD4+ T cells
T7 construct: whole, on cells
T7 sequence (Q95LI5 22-198): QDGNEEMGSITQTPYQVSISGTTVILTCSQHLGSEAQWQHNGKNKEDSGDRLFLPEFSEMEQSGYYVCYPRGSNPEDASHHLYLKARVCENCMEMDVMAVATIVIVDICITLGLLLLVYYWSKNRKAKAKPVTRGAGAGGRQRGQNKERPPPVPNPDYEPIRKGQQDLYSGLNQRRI

T1 sequence (P07766 23-207): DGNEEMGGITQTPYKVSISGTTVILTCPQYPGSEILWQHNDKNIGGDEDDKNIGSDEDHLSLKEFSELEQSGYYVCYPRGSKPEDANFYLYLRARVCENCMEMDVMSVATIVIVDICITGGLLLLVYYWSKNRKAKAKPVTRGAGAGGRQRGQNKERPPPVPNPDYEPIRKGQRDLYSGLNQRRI

B1: CD3B144 (antibody, V domains shown)
VH: EVQLVESGGGLVQPGGSLRLSCAASGFTFNTYAMNWVRQAPGKGLEWVARIRSKYNNYATYYAASVKGRFTISRDDSKNSLYLQMNSLKTEDTAVYYCARHGNFGNSYVSWFAYWGQGTLVTVSS
VL: QSVLTQPPSVSAAPGQKVTISCRSSTGAVTTSNYANWVQQLPGTAPKGLIGGTNKRAPGIPDRFSGSKSGTSATLGITGLQTGDEADYYCALWYSNLWVFGGGTKLTVL
notes: also called CD3H141/CD3L64
- binding result [1]: no binding (tested: 10 µg/ml (normalised))

B2: CD3B152 (antibody, V domains shown)
VH: B1 VH with V5L, A64D, D76N, S80T, K89R, T90A, A99V, R100K
VL: B1 VL
notes: also called CD3H143/CD3L64
- binding result [1]: no binding (tested: 10 µg/ml (normalised))

B3: PSMB123 (antibody, human IgG4 S228P, kappa, F234A L235A, V domains shown)
VH: EVQLVQSGAEVKKPGESLKISCKGSGYSFTSYWIGWVRQMPGKGLEWMGIIYPGDSDTRYSPSFQGQVTISADKSISTAYLQWSSLKASDTAMYYCARGLPIWYLDYWGQGTLVTVSS
VL: EIVLTQSPATLSLSPGERATLSCRASQSVASDLAWYQQKPGQAPRLLIYFASNRATGIPARFSGSGSGTDFTLTISSLEPEDFAVYYCQQSITWPFTFGQGTKVEIKR
notes: IgG4 with S228P, F234A, L235A; also called mAb of Fab PSMB55
- Kd [2]: 66.7 nM
- Kd [3]: 14.3 nM
- Kd [4]: 9.03 nM

B4: PSMB127 (antibody, human IgG4 S228P, kappa, F234A L235A, V domains shown)
VH: EVQLLESGGGLVQPGGSLRLSCAASGFTFKSDAMHWVRQAPGKGLEWVSEISGSGGYTNYADSVKGRFTISRDNSKNTLYLQMNSLRAEDTAVYYCARDSYDSSLYVGDYFDYWGQGTLVTVSS
VL: B3 VL with A30S, D32Y, F50D, S91R, I92S, T93N, F96L
notes: IgG4 with S228P, F234A, L235A; also called mAb of Fab PSMB83
- Kd [2]: 6.68 nM
- Kd [3]: 12.8 nM
- Kd [4]: 12 nM

B5: PSMB49 (Fab, V domains shown)
VH: QVQLVQSGAEVKKPGSSVKVSCKASGGTFSSYAISWVRQAPGQGLEWMGGIIPIFGTANYAQKFQGRVTITADESTSTAYMELSSLRSEDTAVYYCARASRVWHASYGYLDYWGQGTLVTVSS
VL: EIVLTQSPATLSLSPGERATLSCRASQSVSKWLAWYQQKPGQAPRLLIYDASNRATGIPARFSGSGSGTDFTLTISSLEPEDFAVYYCQQRFTAPWTFGQGTKVEIK
notes: Fab; also called PSMM50; Fab of mAb PSMB121
- EC50 (read off the curve) [5]: ~0.2 µg/mL

B6: PS3B7 (M59) (bispecific antibody, human IgG4 S228P, kappa, lambda, F234A L235A)
heavy chain, PSMA arm (PSMB87, Fab PSMB58): not shown
light chain, PSMA arm (PSMB87, Fab PSMB58): not shown
heavy chain, CD3 arm (CD3B217): EVQLLESGGGLVQPGGSLRLSCAASGFTFNTYAMNWVRQAPGKGLEWVARIRSKYNNYATYYADSVKGRFTISRDNSKNTLYLQMNSLRAEDTAVYYCVKHGNFGNSYVSWFAYWGQGTLVTVSSASTKGPSVFPLAPCSRSTSESTAALGCLVKDYFPEPVTVSWNSGALTSGVHTFPAVLQSSGLYSLSSVVTVPSSSLGTKTYTCNVDHKPSNTKVDKRVESKYGPPCPPCPAPEAAGGPSVFLFPPKPKDTLMISRTPEVTCVVVDVSQEDPEVQFNWYVDGVEVHNAKTKPREEQFNSTYRVVSVLTVLHQDWLNGKEYKCKVSNKGLPSSIEKTISKAKGQPREPQVYTLPPSQEEMTKNQVSLTCLVKGFYPSDIAVEWESNGQPENNYKTTPPVLDSDGSFLLYSKLTVDKSRWQEGNVFSCSVMHEALHNHYTQKSLSLSLGK
light chain, CD3 arm (CD3B217): QAVVTQEPSLTVSPGGTVTLTCRSSTGAVTTSNYANWVQQKPGQAPRGLIGGTNKRAPGTPARFSGSLLGGKAALTLSGAQPEDEAEYYCALWYSNLWVFGGGTKLTVLGQPKAAPSVTLFPPSSEELQANKATLVCLISDFYPGAVTVAWKADSSPVKAGVETTTPSKQSNNKYAASSYLSLTPEQWKSHRSYSCQVTHEGSTVEKTVAPTECS
notes: also called PSMB87 x CD3B217
- EC50 (read off the curve) [6]: ~1 µg/mL
- EC50 (read off the curve) [7]: ~1 µg/mL
- EC50 (read off the curve) [8]: ~1 µg/mL

B7: G11 (antibody, human IgG1, kappa, V domains shown)
VH: EVQLLESGGGLVQPGGSLRLSCAASGFTFSSYGMSWVRQAPGKGLEWVSGINGGGGSKYYADSVKGRFTISRDNSKNTLYLQMNSLRAEDTAVYYCAKTSAQRFDYWGQGTLVTVSS
VL: DIQMTQSPSSLSASVGDRVTITCRASQSISSYLNWYQQKPGAPKLLIYAASSLQSGVPSRFSGSGSGTDFTLTISSLQPEDFATYYCQQSYSLPLTFGQGTKVEIKR
notes: In-house phage-derived anti-CD3 control; also called GI
- binding result [9]: no binding
